From patent WO2008140316A1

Target: human CD40 receptor on monocytes (human) (UniProt P25942)
Assay: cell-based or functional assay

UniProt P25942, sequence (P25942 21-277): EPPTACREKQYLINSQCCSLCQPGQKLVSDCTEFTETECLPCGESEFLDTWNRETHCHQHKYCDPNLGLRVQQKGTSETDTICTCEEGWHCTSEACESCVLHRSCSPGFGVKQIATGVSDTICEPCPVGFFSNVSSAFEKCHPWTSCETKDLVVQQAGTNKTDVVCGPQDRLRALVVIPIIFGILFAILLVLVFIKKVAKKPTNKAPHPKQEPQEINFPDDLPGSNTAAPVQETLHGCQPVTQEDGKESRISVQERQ

IL-1β (pg/mL), Clone 64+IFN-γ, MDS CD14+ cells (Table 3): 18 pg/mL
IL-1β (pg/mL), Clone 64+IFN-γ, donor CD14+ cells (Table 3): 13 pg/mL
IL-6 (pg/mL), Clone 64+IFN-γ, MDS CD14+ cells (Table 3): 1210 pg/mL
IL-6 (pg/mL), Clone 64+IFN-γ, donor CD14+ cells (Table 3): 1490 pg/mL
IL-10 (pg/mL), Clone 64+IFN-γ, MDS CD14+ cells (Table 3): 1650 pg/mL
IL-10 (pg/mL), Clone 64+IFN-γ, donor CD14+ cells (Table 3): 1170 pg/mL
TNF-α (pg/mL), Clone 64+IFN-γ, MDS CD14+ cells (Table 3): 293 pg/mL
TNF-α (pg/mL), Clone 64+IFN-γ, donor CD14+ cells (Table 3): 52 pg/mL
TNF-α production by CD14+ monocytes from MDS patients, clone 64 + IFN-γ, 24 h, ELISA: 449 pg/mL
TNF-α production by CD14+ monocytes from normal controls, clone 64 + IFN-γ, 24 h, ELISA: 67 pg/mL
Substance: clone 64 (agonist anti-human CD40 monoclonal antibody, PanGenetics, The Netherlands)
